These results are taken from patent US20120070405A1.

In test [1] the target is CXCR2 on purified human neutrophils (human) (UniProt P25025). The test is described as follows: cell-based or functional assay.
Test [2] deals with CXCR1 on CXCR1-transfected HEK293 cells (UniProt P25024). The experiment in a line: cell-based or functional assay.
UniProt P25024, sequence (P25024 whole entry): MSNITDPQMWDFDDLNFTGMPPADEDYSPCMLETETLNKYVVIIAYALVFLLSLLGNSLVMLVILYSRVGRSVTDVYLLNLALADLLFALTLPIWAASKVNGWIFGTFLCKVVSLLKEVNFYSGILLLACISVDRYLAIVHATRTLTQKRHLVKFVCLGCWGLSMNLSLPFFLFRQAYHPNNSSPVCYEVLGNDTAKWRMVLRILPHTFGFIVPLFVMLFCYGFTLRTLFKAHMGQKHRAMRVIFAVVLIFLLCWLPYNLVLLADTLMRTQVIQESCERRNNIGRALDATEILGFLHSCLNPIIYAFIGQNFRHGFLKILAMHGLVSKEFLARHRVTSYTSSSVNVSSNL

UniProt P25025, sequence (P25025 whole entry): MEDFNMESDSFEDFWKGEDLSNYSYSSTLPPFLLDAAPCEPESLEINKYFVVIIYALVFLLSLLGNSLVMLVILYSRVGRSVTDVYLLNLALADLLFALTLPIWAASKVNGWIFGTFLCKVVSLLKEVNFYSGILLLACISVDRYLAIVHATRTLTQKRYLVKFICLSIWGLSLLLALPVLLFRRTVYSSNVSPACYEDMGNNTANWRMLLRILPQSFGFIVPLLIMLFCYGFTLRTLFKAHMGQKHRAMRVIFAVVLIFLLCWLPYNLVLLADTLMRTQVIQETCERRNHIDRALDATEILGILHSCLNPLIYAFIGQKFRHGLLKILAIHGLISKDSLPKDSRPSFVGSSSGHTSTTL

Consider “human GS-CXCL8(3-72)K11R/G31P (from UniProt P10145 30-99) (ligand)”, for which, in test [1], the intracellular Ca^++ flux in human neutrophils induced by CXCL1 (100 ng/ml), G31P at 10 ng/ml is less than 95 % reduced and the intracellular Ca^++ flux in human neutrophils induced by CXCL5 (100 ng/ml), G31P at 10 ng/ml was less than 95 % reduced. In test [2], this substance had a CXCL8-induced chemotactic responses of CXCR1-transfected HEK293 cells (modified Boyden chamber), G31P at 10 ng/ml of 80 % blocked.
